The text below walks through data of patent US20150203575A1 (Genentech, published 2015).

To fix the notation:
B1: hNPDC1-Fc (Fc fusion)
chain: GHPDVAACPGSLDCALKRRARCPPGAHACGPCLQPFQEDQQGLCVPRMRRPPGGGRPQPRLEDEIDFLAQELARKESGQSTPPLPKDRQRLPEPATLGFSARGQGLELGLPSTPGTPTPTPHTSLGSPVSSDPVHMSPLEPRGGQGD
modifications: sialylated O-glycans
notes: Whole entry named; also called human NPDC1-Fc; hNPDC1 (SPR analyte); not shown: Fc
B2: hNPDC1-His (ligand, not shown: small tags and cut ends)
chain: B1 chain
modifications: Sialylated O-glycans, which the patent says are needed for PILRα binding, cannot be carried by the letters
notes: also called hNPDC1-His (WT); hNPDC1-His (mut) (labels name the immobilised hPILRα form)
B3: mPILRαR133A expressed on 293T cells (receptor)
chain: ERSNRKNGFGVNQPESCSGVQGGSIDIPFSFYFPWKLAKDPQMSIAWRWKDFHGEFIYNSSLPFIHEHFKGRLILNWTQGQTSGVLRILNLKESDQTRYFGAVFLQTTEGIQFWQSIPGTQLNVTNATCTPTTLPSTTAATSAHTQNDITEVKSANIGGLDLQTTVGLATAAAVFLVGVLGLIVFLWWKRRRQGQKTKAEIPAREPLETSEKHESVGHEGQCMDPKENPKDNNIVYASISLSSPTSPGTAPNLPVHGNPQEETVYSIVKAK
notes: also called mouse PILRα133A; mPILRαR133A transfectants
B4: human CD99 expressed on 293T cells (ligand, UniProt P14209 23-185, looked up)
chain: DGGFDLSDALPDNENKKPTAIPKKPSAGDDFDLGDAVVDGENDDPRPPNPPKPMPNPNPNHPSSSGSFSDADLADGVSGGEGKGGSDGGGSHRKEGEEADAPGVIPGIVGAVVVAVAGAISSFIAYQKKKLCFKENAEQGEVDMESHRNANAEPAVQRTLLEK
notes: whole, on cells; also called hCD99; hCD99 transfectants
B5: mouse CD99 expressed on 293T cells (ligand, UniProt Q8VCN6 29-175, looked up)
chain: DDFNLGDALEDPNMKPTPKAPTPKKPSGGFDLEDALPGGGGGGAGEKPGNRPQPDPKPPRPHGDSGGISDSDLADAAGQGGGGAGRRGSGDEGGHGGAGGAEPEGTPQGLVPGVVAAVVAAVAGAVSSFVAYQRRRLCFREGGSAPV
modifications: sialylated O-glycans at Thr-45 and Thr-50 (cited as relevant for PILRα recognition)
notes: whole, on cells; also called mCD99; mCD99 transfectants
B6: hPILRαR126A expressed on 293T cells (receptor)
chain: QPSGSTGSGPSYLYGVTQPKHLSASMGGSVEIPFSFYYPWELATAPDVRISWRRGHFHRQSFYSTRPPSIHKDYVNRLFLNWTEGQKSGFLRISNLQKQDQSVYFCAVELDTRSSGRQQWQSIEGTKLSITQAVTTTTQRPSSMTTTWRLSSTTTTTGLRVTQGKRRSDSWHISLETAVGVAVAVTVLGIMILGLICLLRWRRRKGQQRTKATTPAREPFQNTEEPYENIRNEGQNTDPKLNPKDDGIVYASLALSSSTSPRAPPSHRPLKSPQNETLYSVLKA
notes: also called human PILRαR126A; hPILRαR126A transfectants
B7: mCD99-Fc (Fc fusion, mouse, UniProt Q8VCN6 29-137, looked up)
chain: DDFNLGDALEDPNMKPTPKAPTPKKPSGGFDLEDALPGGGGGGAGEKPGNRPQPDPKPPRPHGDSGGISDSDLADAAGQGGGGAGRRGSGDEGGHGGAGGAEPEGTPQG
modifications: three O-glycans NeuAc1-2Hex1HexNAc1
notes: also called mouse CD99-Fc; mCD99 (SPR analyte); not shown: Fc

Assay [1] deals with B6. The assay is described as follows: flow cytometry, transfected 293T cells, PILRα-positive cells gated.
Assay [2] concerns the target B3. The description is as above.
The next assay addresses T1, hPILRαR126A-Fc (human; mouse, UniProt Q9UKJ1 20-197).
T1 construct: Arg mutant of hPILRα-Fc; also called hPILRα R126-Fc; mutant hPILRα; not shown: Fc of mouse IgG2a (PILRα-mIgG2a, called PILRα-Fc)
The assay is described as follows: SPR, hPILRα R126A-Fc immobilized, response difference.

The target in a further assay is T2, hCOLEC12-his (human, UniProt Q5KU26 59-742, sialylated O-glycans and N-glycans).
T2 construct: Whole entry named; also called human COLEC12-his; hCOLEC12 (SPR); not shown: his tag
T2 sequence (Q5KU26 59-742 S522P/G606S limits assumed): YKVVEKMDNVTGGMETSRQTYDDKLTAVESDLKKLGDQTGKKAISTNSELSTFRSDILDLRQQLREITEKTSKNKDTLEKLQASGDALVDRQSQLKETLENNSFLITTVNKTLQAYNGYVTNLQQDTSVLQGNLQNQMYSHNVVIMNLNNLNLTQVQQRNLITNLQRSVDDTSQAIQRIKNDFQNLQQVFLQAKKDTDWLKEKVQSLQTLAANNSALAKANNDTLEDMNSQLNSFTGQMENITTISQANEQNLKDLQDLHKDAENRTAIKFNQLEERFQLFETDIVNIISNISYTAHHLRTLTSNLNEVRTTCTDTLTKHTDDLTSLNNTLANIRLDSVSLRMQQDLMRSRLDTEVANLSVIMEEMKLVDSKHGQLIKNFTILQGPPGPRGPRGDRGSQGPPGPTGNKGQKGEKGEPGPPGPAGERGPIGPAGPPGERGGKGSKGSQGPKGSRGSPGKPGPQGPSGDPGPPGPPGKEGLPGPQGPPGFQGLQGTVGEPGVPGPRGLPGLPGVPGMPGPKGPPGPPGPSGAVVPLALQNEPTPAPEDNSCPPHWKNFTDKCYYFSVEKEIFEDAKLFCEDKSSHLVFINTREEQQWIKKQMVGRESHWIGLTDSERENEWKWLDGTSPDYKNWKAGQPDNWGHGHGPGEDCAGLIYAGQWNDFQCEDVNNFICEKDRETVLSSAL
The assay is described as follows: flow cytometry, transfected 293T cells, PILRα-positive cells gated.

For another assay, the target named is T3, mPILRα-Fc (mouse, UniProt Q2YFS3 32-198).
T3 construct: also called mouse PILRα-Fc; WT mPILRα-Fc; not shown: Fc of mouse IgG2a (PILRα-mIgG2a, called PILRα-Fc)
T3 sequence (Q2YFS3 32-198): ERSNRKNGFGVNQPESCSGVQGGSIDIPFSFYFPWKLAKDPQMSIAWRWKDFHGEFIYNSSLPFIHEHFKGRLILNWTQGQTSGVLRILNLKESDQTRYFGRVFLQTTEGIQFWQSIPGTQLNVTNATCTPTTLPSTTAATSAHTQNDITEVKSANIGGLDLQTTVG
The assay is described as follows: flow cytometry, transfected 293T cells.

The next assay has as its target T4, hPILRα-Fc (human; mouse, UniProt Q9UKJ1 20-197).
T4 construct: also called human PILRα-Fc; WT hPILRα-Fc; not shown: Fc of mouse IgG2a (PILRα-mIgG2a, called PILRα-Fc)
The assay is described as follows: flow cytometry, transfected 293T cells.

Description for hPILRα-Fc: (§1) CD99 expressing cells were gated and their binding to PILRα-Fc was shown.
Description for mPILRα-Fc: as §1

For the molecule B1, the binding result in assay [1] and in assay [2] was “no binding” each time.

In the case of B2, the binding result in the assay with hPILRαR126A-Fc is recorded as “no binding (tested: 1 µM)”. Regarding B3, in the assay with hCOLEC12-his, the binding result is on record as “no binding”. With B4, the binding result with mPILRα-Fc and with hPILRα-Fc was “no binding” each time. B5: the binding result with mPILRα-Fc and with hPILRα-Fc was “binds” throughout. For B6, the binding result in the assay with hCOLEC12-his is given as “no binding”. For B7, the binding result in assay [1] and in assay [2] was “no binding” each time.
